Measurements from article PMC4420033, “Structure and heme-binding properties of HemQ (chlorite dismutase-like protein) from Listeria monocytogenes” (Archives of Biochemistry and Biophysics, 2015).
Several values for one entry are separate records, joined by “and”; a condition that tells them apart may be missing. Equal entries are not always repeated.

T1: LmCld (chlorite dismutase-like protein, HemQ) (Listeria monocytogenes, UniProt Q8Y5F1)
T1 construct: gene chdC; N-terminal StrepII-tag, TEV-cleavable (cleaved for crystallization); recombinant in E. coli Tuner (DE3); subunit approx. 30 kDa; hexamer approx. 180 kDa in solution, pentamer in crystal
T1 sequence (Q8Y5F1 1-251): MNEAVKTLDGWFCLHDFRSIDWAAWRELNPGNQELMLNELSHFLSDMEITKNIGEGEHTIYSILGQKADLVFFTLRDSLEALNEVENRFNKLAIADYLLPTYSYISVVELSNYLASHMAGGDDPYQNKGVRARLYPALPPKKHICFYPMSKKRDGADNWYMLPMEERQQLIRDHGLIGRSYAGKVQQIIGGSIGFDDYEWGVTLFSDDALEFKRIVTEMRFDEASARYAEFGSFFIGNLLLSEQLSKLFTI

B1: apo-LmCld (heme-free chlorite dismutase-like protein from Listeria monocytogenes) (natural protein, UniProt Q8Y5F1 1-251, looked up)
chain: T1 sequence (Q8Y5F1 1-251)
notes: Chlorite dismutase-like protein (HemQ) of Listeria monocytogenes; subunit of about 30 kDa; Heme-free form; The template was strain L028, the ORF annotation is of strain EGD-e; The tag is TEV-cleavable; also called HemQ; Cld-like protein
B2: holo-LmCld (heme b-bound chlorite dismutase-like protein from Listeria monocytogenes) (natural protein, UniProt Q8Y5F1 1-251, looked up)
chain: T1 sequence (Q8Y5F1 1-251)
notes: Chlorite dismutase-like protein (HemQ) of Listeria monocytogenes; subunit of about 30 kDa; heme is partly lost in the high-salt running buffer of the SEC-MALS; also called HemQ; Cld-like protein
B3: apo-LmCld, StrepII-tag cleaved off (as crystallized) (natural protein, Listeria monocytogenes, UniProt Q8Y5F1 1-251, looked up)
chain: T1 sequence (Q8Y5F1 1-251)
notes: Chlorite dismutase-like protein (HemQ) of Listeria monocytogenes; Heme-free; homopentamer in the crystal lattice; also called HemQ; LmCld (4WWS); source: E. coli Tuner (DE3), purified (StrepTrap, TEV cleavage, Superdex 200); not shown: StrepII, N-terminal, cleaved

Columns and labels:
[1] = biological target: T1, LmCld (chlorite dismutase-like protein, HemQ); test: electronic circular dichroism titration, Soret minimum […] nm, Hill fit; assay type: binding
[2] = biological target: the molecule itself; test: SEC-MALS; Superdex 200 10/300 GL, Dulbecco PBS plus 200 mM NaCl, 0.75 mL per min, 50 ug protein injected
[3] = biological target: the molecule itself; test: crystal structure; apo-LmCld, 0.1 M Tris pH 8.5, 0.6 M potassium sodium tartrate, 8% glycerol; 2.0 A, space group P 1 21 1

Molecule	stoichiometry N [2]	also measured
C=CC1=C(C)C2=Cc3c(C=C)c(C)c4[n]3[Fe]([Cl])[n]3c(c(C)c(CCC(=O)O)c3=CC3=NC(=C4)C(C)=C3CCC(=O)O)=CC1=N2 [hemin]		Kd [1]: 7.2 ± 0.5 µM
B1	6 subunits and 12 subunits	
B2	6 subunits and 12 subunits	
B3		stoichiometry N [3]: 5 subunits
